Laboratory results: patent US20200283521A1 (GRANULAR THERAPEUTICS, published 2020)

Assays:
Assay in all cases: cell array, transfected fixed HEK293 cells
[1] = biological target: T1, EGFR (human, UniProt P00533)
T1 construct: expressed in transfected HEK293 cells
Method: (§1) Transfection of all plasmids was confirmed by screening for the co-encoded marker ZS green (FIG. 13A).
(§2) Primary hits (duplicate spots) were identified by analysing fluorescence (AF647 and ZsGreenl) on ImageQuant. Vectors encoding all hits were sequenced to confirm their correct identities. […] Slides were analysed as above.

[2] = biological target: T2, SLMAP (human, UniProt Q14BN4)
T2 construct: expressed in transfected HEK293 cells
T2 sequence (looked up): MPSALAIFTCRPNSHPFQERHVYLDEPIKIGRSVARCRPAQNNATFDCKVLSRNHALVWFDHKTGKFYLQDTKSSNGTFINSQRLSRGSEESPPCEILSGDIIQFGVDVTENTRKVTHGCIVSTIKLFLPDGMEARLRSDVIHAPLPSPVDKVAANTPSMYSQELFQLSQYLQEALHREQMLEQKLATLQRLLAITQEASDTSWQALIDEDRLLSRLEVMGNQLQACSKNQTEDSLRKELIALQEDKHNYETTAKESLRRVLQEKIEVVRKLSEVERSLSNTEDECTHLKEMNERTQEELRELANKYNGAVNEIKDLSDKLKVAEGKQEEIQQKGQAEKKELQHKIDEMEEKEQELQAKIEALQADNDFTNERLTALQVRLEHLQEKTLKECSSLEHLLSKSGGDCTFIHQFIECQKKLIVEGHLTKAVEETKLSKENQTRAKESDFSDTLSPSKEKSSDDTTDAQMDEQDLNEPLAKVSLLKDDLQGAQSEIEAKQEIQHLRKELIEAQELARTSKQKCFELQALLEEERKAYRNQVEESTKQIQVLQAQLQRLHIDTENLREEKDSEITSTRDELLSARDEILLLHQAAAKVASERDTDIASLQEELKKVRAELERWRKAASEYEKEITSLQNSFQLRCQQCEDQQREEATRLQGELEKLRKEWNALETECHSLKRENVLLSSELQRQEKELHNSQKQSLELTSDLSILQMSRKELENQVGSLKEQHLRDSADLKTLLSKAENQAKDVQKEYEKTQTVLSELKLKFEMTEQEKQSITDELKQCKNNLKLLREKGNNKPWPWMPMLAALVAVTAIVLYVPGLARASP
Method: as §1, §2

[3] = biological target: T3, MSN (human, UniProt P26038)
T3 construct: expressed in transfected HEK293 cells
T3 sequence (P26038 2-577 limits assumed): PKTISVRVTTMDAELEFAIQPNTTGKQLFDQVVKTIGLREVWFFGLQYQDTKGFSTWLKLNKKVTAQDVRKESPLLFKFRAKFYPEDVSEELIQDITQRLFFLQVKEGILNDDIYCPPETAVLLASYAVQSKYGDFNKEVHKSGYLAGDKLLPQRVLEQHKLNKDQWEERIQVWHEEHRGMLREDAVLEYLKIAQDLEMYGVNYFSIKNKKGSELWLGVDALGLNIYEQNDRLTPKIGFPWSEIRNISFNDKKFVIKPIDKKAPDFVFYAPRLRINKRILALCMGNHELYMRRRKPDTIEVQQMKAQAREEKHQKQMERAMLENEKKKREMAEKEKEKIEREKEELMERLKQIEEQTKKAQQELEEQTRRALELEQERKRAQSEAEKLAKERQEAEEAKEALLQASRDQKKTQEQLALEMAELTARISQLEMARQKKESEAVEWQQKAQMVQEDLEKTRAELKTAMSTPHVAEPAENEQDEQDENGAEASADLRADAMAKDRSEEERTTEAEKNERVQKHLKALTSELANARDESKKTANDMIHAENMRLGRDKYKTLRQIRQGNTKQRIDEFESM
Method: as §1, §2

[4] = biological target: T4, BAIAP2L2 (human, UniProt Q6UXY1)
T4 construct: expressed in transfected HEK293 cells
T4 sequence (looked up): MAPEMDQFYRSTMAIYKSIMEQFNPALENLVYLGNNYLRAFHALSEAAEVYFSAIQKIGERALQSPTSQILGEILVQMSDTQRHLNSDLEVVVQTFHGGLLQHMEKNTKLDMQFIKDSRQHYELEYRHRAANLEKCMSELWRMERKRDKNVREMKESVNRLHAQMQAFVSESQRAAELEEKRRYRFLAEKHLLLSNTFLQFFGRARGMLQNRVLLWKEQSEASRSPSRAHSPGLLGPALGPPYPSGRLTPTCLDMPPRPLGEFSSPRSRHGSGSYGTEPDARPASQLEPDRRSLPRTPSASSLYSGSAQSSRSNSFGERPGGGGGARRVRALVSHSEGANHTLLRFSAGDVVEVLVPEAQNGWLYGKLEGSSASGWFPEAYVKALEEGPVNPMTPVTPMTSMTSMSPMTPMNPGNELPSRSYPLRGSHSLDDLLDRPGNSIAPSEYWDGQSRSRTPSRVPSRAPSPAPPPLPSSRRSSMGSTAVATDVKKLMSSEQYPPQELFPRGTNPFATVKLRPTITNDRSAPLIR
Method: as §1, §2

[5] = biological target: T5, ZG16B (human, UniProt Q96DA0)
T5 construct: expressed in transfected HEK293 cells
T5 sequence (looked up): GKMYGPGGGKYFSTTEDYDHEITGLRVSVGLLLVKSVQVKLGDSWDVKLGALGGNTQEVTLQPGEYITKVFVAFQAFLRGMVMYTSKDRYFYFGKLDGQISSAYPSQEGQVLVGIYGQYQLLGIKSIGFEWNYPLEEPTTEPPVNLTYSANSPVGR
Method: as §1, §2

[6] = biological target: T6, PSAPL1 (human, UniProt Q6NUJ1)
T6 construct: expressed in transfected HEK293 cells
T6 sequence (looked up): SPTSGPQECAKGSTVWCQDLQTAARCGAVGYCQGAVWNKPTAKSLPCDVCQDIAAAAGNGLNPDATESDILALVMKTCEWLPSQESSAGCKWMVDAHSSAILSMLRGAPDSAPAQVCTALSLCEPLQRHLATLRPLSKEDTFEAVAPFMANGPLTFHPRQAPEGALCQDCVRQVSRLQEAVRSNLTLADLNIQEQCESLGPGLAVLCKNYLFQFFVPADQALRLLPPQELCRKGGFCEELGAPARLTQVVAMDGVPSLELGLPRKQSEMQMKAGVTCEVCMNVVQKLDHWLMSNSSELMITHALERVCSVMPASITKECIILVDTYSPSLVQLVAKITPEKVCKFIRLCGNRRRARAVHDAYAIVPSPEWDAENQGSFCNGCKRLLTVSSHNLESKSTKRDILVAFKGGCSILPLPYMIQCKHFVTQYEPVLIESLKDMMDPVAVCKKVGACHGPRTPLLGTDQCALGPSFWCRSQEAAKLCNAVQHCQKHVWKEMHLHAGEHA
Method: as §1, §2

[7] = biological target: T7, PPT1 (human, UniProt P50897)
T7 construct: expressed in transfected HEK293 cells
T7 sequence (looked up): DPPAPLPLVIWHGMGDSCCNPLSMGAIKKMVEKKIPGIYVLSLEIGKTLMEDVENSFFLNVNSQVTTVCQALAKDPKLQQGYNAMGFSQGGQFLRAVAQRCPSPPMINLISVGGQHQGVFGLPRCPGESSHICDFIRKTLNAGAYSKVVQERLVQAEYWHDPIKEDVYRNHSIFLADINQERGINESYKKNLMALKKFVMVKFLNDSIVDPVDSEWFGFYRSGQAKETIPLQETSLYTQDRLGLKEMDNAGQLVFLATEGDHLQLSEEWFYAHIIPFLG
Method: as §1, §2

Measured: binding result

B1: humanized h37M, human IgG1 (antibody, V domains shown)
VH: QVQLVQSGAEVKKPGASVKLSCKASGYTFTDYYINWVRQAPGKGLEWIARIYPGSGNTYYNEKFKGRATLTADKSTSTAYMQLSSLRSEDTAVYFCARGVYYFDYWGQGTTVTVSS
VL: DIVMTQSPSSLSASVGDRVTITCKASQNVRTNVAWYQQKPGKAPKALIYSASYRYSGVPDRFTGSGSGTDFTLTISSLQPEDFADYFCQQYNSYPRTFGGGTKVEIK
notes: human IgG1; terbium-labelled as the tracer of the HTRF assays; also called C-KIT-h37M; h37M-IgG1
no binding (tested: 2 µg/ml): all assays above
